Test results reported in patent US20060148030A1, “Nuclear receptor err y 3” (FUJISAWA PHARMACEUTICAL CO., LTD, priority 2002, published 2006).

Target: T1, PPARβ (Homo sapiens, UniProt Q03181)
T1 construct: expressed in transfected cells; host or cells: CV-1 (African green monkey kidney)
T1 sequence (Q03181 1-441): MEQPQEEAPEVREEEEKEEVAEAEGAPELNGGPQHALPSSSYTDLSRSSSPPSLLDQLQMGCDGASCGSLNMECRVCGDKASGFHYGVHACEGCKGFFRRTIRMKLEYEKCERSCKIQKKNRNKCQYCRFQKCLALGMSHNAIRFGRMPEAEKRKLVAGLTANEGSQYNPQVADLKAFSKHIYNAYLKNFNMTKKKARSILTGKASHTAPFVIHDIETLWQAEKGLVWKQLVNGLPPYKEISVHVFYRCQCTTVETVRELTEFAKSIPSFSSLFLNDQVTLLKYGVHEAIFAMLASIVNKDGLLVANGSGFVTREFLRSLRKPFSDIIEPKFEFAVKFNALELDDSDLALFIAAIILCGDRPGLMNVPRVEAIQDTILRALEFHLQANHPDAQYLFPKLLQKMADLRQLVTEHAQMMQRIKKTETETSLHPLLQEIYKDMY
T1 sequence (P19793 1-462 partner): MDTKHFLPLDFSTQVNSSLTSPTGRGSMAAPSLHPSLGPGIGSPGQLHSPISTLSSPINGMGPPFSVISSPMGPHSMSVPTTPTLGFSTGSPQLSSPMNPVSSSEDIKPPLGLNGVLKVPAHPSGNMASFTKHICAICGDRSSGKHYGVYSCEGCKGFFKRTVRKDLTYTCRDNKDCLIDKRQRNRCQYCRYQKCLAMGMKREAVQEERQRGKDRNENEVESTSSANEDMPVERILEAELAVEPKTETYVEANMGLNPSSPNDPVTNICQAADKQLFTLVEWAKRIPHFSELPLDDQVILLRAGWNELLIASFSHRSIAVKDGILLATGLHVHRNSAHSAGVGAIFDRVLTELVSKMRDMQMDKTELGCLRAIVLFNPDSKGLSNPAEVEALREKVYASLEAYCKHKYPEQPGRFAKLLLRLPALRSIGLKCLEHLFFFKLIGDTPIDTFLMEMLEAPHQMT
Assay: Reporter gene assay, ERRγ3 coexisted with PPARβ, pGVP2-PPRE1 in CV-1 cells
Assay type: cell-based
Details: 10^−5 M carbacyclin, FIG. 24
Procedure: Transfection was performed as follows: CV-1 cells were resuspended in DMEM supplemented with 10% fetal bovine serum, 2000 U/l of penicillin G, and 100 mg/l of streptomycin to a concentration of 2×10^5 cells/2.5 ml. This was then seeded to a 6-well plate at 2.5 ml per well, and incubated for 18-24 hours in a CO2 incubator at 37° C. and 5% CO2. 1 μg of each of the expression plasmids for the transcription factors, the luciferase reporter plasmid, and another luciferase reporter plasmid used for normalization of the measured values (pRL-TK), were dissolved in Opti-MEM (Gibco BRL), to a total of 150 μl. […] Luciferase activity was measured using the Dual-Luciferase™ Reporter Assay System (Promega). […] The protocol for measurement was as follows: 50 μl of Luciferase Assay Reagent II was added to each well, stirred for 0.3 seconds, and measured for one second. 50 μl of Stop&Glo™ Reagent was then added, stirred for 0.3 seconds, and measured for one second. The measured values for firefly luciferase activity were corrected by dividing by the value for the Renilla luciferase activity, the internal control. Average values and standard errors were calculated from triplicate samples.
The effect of ligands on the function of ERRγ3 in enhancing the transcriptional activation function of peroxisome proliferator activated receptor (PPAR) α, β, or γ was evaluated using the reporter gene assay (FIG. 24). […]

B1: ERRγ3: novel ERRγ isoform, nuclear receptor protein of 396 amino acids (SEQ ID NO: 2) lacking part of the DNA binding domain (protein, listed as Homo sapiens)
chain: MSNKDRHIDSSCSSFIKTEPSSPASLTDSVNHHSPGGSSDASGSYSSTMNGHQNGLDSPPLYPSAPILGGSGPVRKLYDDCSSTIVEDPQTKCEYMLNSMPKRLCLVCGDIASGYHYGVASCEACKAFFKRTIQGVRLDRVRGGRQKYKRRIDAENSPYLNPQLAQPAKKPYNKIVSHLLVAEPEKIYAMPDPTVPDSDIKALTTLCDLADRELVVIIGWAKHIPGFSTLSLADQMSLLQSAWMEILILGVVYRSLSFEDELVYADDYIMDEDQSKLAGLLDLNNAILQLVKKYKSMKLEKEEFVTLKAIALANSDSMHIEDVEAVQKLQDVLHEALQDYEAGQHMEDPRRAGKMLMTLPLLRQTSTKAVQHFYNIKLEGKVPMHKLFLEMLEAKV
- modifying effect on the transcriptional stimulation activity of PPARβ: did not show any significant modifying effect
